Experimental data: the DeepSol protein solubility set

Assay: soluble on expression in E. coli; label from the status in PepcDB or PDB records

Sequence	soluble on expression in E. coli
MNQYLAVTSNGMENLLVEELTKLGIENAKPVQAGVKFKATNEQIYRCCLWSRLASRFVRVLSEFTCNDDMDLYLSTSSINWVNQFHSSKRFVVDFNGTNREIRNSQYGAMKVKDGIVDCFEKKGLPRPNISKERPDIRVHVRLHKDKAILGVDMVGSGLHQRGYRPESGRAPLRETLAAAIIMRCGWDGHQPLLDPMCGSGTLLIEAAMMAANMAPGVKRKQWCFESLEDFEPDTWAEIKSEANVQARRGVKKVDAKFFGFDNDPKVLKVAQENARRAGVEELIEFAQGDVATITRLSGFENGVIVSNPPYGERLGTEPGLIALYTAFGGQLKAEFGGCKASIFSSSDELLSCLRMRADKQFKLNNGALPCHQKNYSIAERSADEVKGADTNTQIAPDFSNRLKKNIGKIGKWARKEKLDCYRIYDADLPEYNVAIDVYGDQIVIQEYAAPKNIPEEKAKRRLTDIIRATIQVTGVEANKVVLKVREKQKGRSQYQK	not soluble
MSLCAREPRVPADRLVAEMVPPPRFDSVRFGTYVPDPNQPSQSEAVRVLEDFAGGLGEAPGTGGGRRGFFGLGRGRAPKTPAGPRGVYLDGGYGVGKTHLLASLWHATPAEPSRKAFGTFVELTNLVGALGFQQTVQTLSGHRLLCIDEFELDDPGDTVLVSSLLARLVEAGVALAATSNTLPGKLGEGRFAAADFLREIQGLSAHFRALRIDGEDYRHRGLPEAPAPYSDEQVTRAARATEGASLDDFAALLDHLARVHPSRYGALTDGLTAVCLTGVHPVPDQSTALRLVVLADRLYDREVPVLASGLPFDRLFGEEMLKGGYRKKYFRAISRLTALARDAARLVDTAAAALEHHHHHH	not soluble
MSLEGEQHSRERDQQAIQYHYDVSNDFYKLWLDERMVYSCAYFPGGQETLDEAQTAKLDYICRKLQLRPGERLLDIGCGWGGLSLYAAQHYGVQVLGVTLSQAQLQEGQARVRVAGLEGQVQLELRDYRDVLSRGPAQFDKIASVGMAEHVGRRNMPEYFRSAYAALKPGGLMLNHAIGDGIGQARVPMWLQSGNFARKYVFPDGELLPVWETLKYASEQLFEVRDVENLREHYALTIGHWAARLEAHRPEALALLGEERLRLWRLYLGATSYYFRKGHLTLFQSLLAKPDAERAVPLPLSRAGLYREGHHHHHH	soluble
MGSDKIHHHHHHMRYNRTETLLQLALELSASHSGLSLTDIEQMFGVGRRTAQRMRDAIERVFPQLEEVPQPDRTKRWRLPNRVLGRVSDLNIDDIMAMETAAEILERDNRPDAAASVRRAGAKVRASLRPDDARRIEPDLEALMQAEGIAMRPGPRPKVRPELVETLRHAIMGCREIRVQYRRRYSTNEHSRVVQPYGLLYGQRHYLLAFVPEENEVRSYSFPNIIGVEETGNSFVRDPAFSLTEYAARSFGLYQEEPYEVMWRFSPDAATDAKEFLFHPSQTHESQPDGSLIVRFKAGGLLEMAWHLYQWGDAVEVLEPEKLRAIHERSKVSWVARP	not soluble
GVFTYESEFTSEIPPPRLFKAFVLDADNLVPKIAPQAIKHSEILEGDGGPGTIKKITFGEGSQYGYVKHKIDSIDKENYSYSYTLIEGDALGDTLEKISYETKLVASPSGGSIIKSTSHYHTKGNVEIKEEHVKAGKEKASNLFKLIETYLKGHPDAYN	soluble
MSLQRVSNRLIEQSDIENMPNTWKKQAYRQIAKKLGPKSNFPCIFSKNAYKKGLLQFVFMESISHDQMEELKVCLTEFIEANKEWDHRISTAKPLLIVFSTQAIKSERLEDYHSFGWNVLRSIHALDPSPWPHGVDKDPSSPNWSMCFNGMQLFINMSCPAHKVRRSRNLGDHFIMVVNPRERFDVVAGDNAKGHRVRDEIRGRIEIYDNCKPCKQLGYFGSDTMEWQQYGIIEENKTRTSKCPYKIDEGHHHHHH	soluble
GMMNTTTLDRYFDLFDASRTDEKAFDDLISLFSDEITFVLNGQEQHGIDAWKQFVRMVFTANQDIKHMYAGWVPSETGDTMETRWAVCGKSADGSVFTQDGTDIARLNADGKIVYLANVPDDTAMFNQYND	soluble
MGSSHHHHHHSSGLVPRGSHVHNKVTIIGSGPAAHTAAIYLARAEIKPILYEGMMANGIAAGGQLTTTTEIENFPGFPDGLTGSELMDRMREQSTKFGTEIITETVSKVDLSSKPFKLWTEFNEDAEPVTTDAIILATGASAKRMHLPGEETYWQKGISACAVCDGAVPIFRNKPLAVIGGGDSACEEAQFLTKYGSKVFMLVRKDHLRASTIMQKRAEKNEKIEILYNTVALEAKGDGKLLNALRIKNTKKNEETDLPVSGLFYAIGHTPATKIVAGQVDTDEAGYIKTVPGSSLTSVPGFFAAGDVQDSKYRQAITSAGSGCMAALDAEKYLTSLE	soluble
VRAPVTKVHGGAGSAQRMPLCDKCGSGIVGAVVKARDKYRHPECFVCADCNLNLKQKGYFFVEGELYCETHARART	soluble
